Test results taken from US20190300875A1 (University of California, published 2019).

B1: Arabidopsis CIB1 (cryptochrome-interacting basic-helix-loop-helix) protein (other)
chain: MNGAIGGDLLLNFPDMSVLERQRAHLKYLNPTFDSPLAGFFADSSMITGGEMDSYLSTAGLNLPMMYGETTVEGDSRLSISPETTLGTGNFKKRKFDTETKDCNEKKKKMTMNRDDLVEEGEEEKSKITEQNNGSTKSIKKMKHKAKKEENNFSNDSSKVTKELEKTDYIHVRARRGQATDSHSIAERVRREKISERMKFLQDLVPGCDKITGKAGMLDEIINYVQSLQRQIEFLSMKLAIVNPRPDFDMDDIFAKEVASTPMTVVPSPEMVLSGYSHEMVHSGYSSEMVNSGYLHVNPMQQVNTSSDPLSCFNNGEAPSMWDSHVQNLYGNLGV
notes: also called AT4G34530
B2: nYFP-CRY2 (N terminus of YFP fused to CRY2) (other)
chain: MKMDKKTIVWFRRDLRIEDNPALAAAAHEGSVFPVFIWCPEEEGQFYPGRASRWWMKQSLAHLSQSLKALGSDLTLIKTHNTISAILDCIRVTGATKVVFNHLYDPVSLVRDHTVKEKLVERGISVQSYNGDLLYEPWEIYCEKGKPFTSFNSYWKKCLDMSIESVMLPPPWRLMPITAAAEAIWACSIEELGLENEAEKPSNALLTRAWSPGWSNADKLLNEFIEKQLIDYAKNSKKVVGNSTSLLSPYLHFGEISVRHVFQCARMKQIIWARDKNSEGEESADLFLRGIGLREYSRYICFNFPFTHEQSLLSHLRFFPWDADVDKFKAWRQGRTGYPLVDAGMRELWATGWMHNRIRVIVSSFAVKFLLLPWKWGMKYFWDTLLDADLECDILGWQYISGSIPDGHELDRLDNPALQGAKYDPEGEYIRQWLPELARLPTEWIHHPWDAPLTVLKASGVELGTNYAKPIVDIDTARELLAKAISRTREAQIMIGAAPDEIVADSFEALGANTIKEPGLCPSVSSNDQQVPSAVRYNGSKRVKPEEEEERDMKKSRGFDERELFSTAESSSSSSVFFVSQSCSLASEGKNLEGIQDSSDQITTSLGKNGCK
notes: BiFC construct in Arabidopsis protoplasts; not shown: N terminus of YFP

Assays:
[1] = target: T1, Arabidopsis cryptochrome 2 (CRY2) (Arabidopsis, UniProt Q96524 1-612); test: yeast β-gal assay, dark or blue light (FIG. 5H)
T1 construct: also called AT1G04400
Method: The H293 cells were transfected with vector expressing CRY2 only (CRY2), or together with vector expression Myc-BIC1 (CRY2+BIC1) and cultured in dark for 24 hours. The cells were cracked and divided into equally 12 tubes, then treated with blue light (40 μmol m⁻² s⁻¹) for the duration indicated. The sample were analyzed by western blot using anti-CRY2 antibody and anti-Myc antibody sequentially. (FIG. 5B) β-Gal assay of yeast cells expressing indicated proteins kept in darkness (D) or irradiated with blue light (B50, 50 μmol m⁻² s⁻¹) for indicated durations. (FIG. 5C) Fluorescence images showing the formation of CRY2-GFP nuclear bodies in the protoplasts of WT, BIC1-OX line or […]. The protoplasts transformed with CRY2-GFP construct were kept in darkness overnight and then irradiated with blue light (20 μmol m⁻² s⁻¹) for the time indicated. […] Each sample contains at least 50 protoplast. Means and SD (n=3) are shown. (FIG. 5E) BiFC analysis of the blue-light-induced formation of CRY2 nuclear bodies in protoplasts of WT, BIC1-OX line or BIC2-OX line. The protoplasts transformed with cYFP-CRY2 and nYFP-CRY2 constructs were kept in darkness overnight and then irradiated with blue light (20 μmol m⁻² s⁻¹) for the time indicated. […] Each sample contains at least 50 protoplast. Means and SD (n=3) are shown. […]

[2] = target: T2, cCFP-CRY2 (C terminus of cyan fluorescent protein fused to CRY2) (Arabidopsis, UniProt Q96524 1-612); test: BiFC in Arabidopsis protoplasts
T2 construct: BiFC construct in Arabidopsis protoplasts; not shown: C terminus of cyan fluorescent protein

| Binder | binding result [1] | binding result [2] |
| --- | --- | --- |
| B1 | binds | – |
| B2 | – | binds |
